{"source": "paper PMC10412621", "target": "full-length human leucine-rich repeat kinase 1 (LRRK1, residues 1-2015) (human) (UniProt Q38SD2)", "assay": "mass photometry; undiluted 'monomer' and 'dimer' gel filtration fractions added to detergent-free buffer (20 mM Tris, 150 mM NaCl, 5 mM MgCl2 pH 8.3); OneMP mass photometer; dimer fraction held monomers and dimers at approximately a 1:2 ratio, alongside higher-order species"}
{"substance": "full-length human leucine-rich repeat kinase 1 (LRRK1, residues 1-2015) (from UniProt Q38SD2 1-2015) (enzyme)", "values": [{"measurement": "stoichiometry N", "value": 2}]}
